From patent US20030186329A1, “Use of substrate subtraction libraries to distinguish enzyme specificities” (The Scripps Research Institute, priority 1998, published 2003) come the findings set out here.

Substrate in this data set: CC(C)[C@H](NC(=O)[C@H](CO)NC(=O)CNC(=O)CNC(=O)[C@@H](NC(=O)[C@@H](NC(=O)[C@H](CCCNC(=N)N)NC(=O)CNC(=O)[C@@H]1CCCN1C(=O)[C@H](CO)NC(=O)[C@H](CCCCN)NC(=O)[C@@H](N)CCCCN)C(C)C)C(C)C)C(=O)N[C@@H](C)C(=O)N[C@@H](Cc1c[nH]cn1)C(=O)O
Put plainly: Kinetics of cleavage of synthetic peptides by t-PA (HPLC, Eadie-Hofstee analysis). Type of data set: biochemical. The following applies: other: hydrolysis of peptide by t-PA. As for the experimental part: Concentrations of functional t-PA and u-PA were measured by active site titration with 4-methylumbelliferyl p-guanidinobenzoate (Jameson, G., et al., (1973) Biochem. J. 131, 107-117) using a Perkin-Elmer LS 50B Luminescence Fluorometer as previously described (Madison, E. L., et al., (1995) J. Biol. Chem. 270: 7558-7562). In addition, the enzymes were titrated with a standard PAI-1 preparation that had been previously titrated against a trypsin primary standard. Total enzyme concentrations were measured by ELISA.
Individual phage stocks were prepared and digested with no enzyme, t-PA, u-PA, or u-PA in the presence of 1 mM amiloride, a specific inhibitor of u-PA. Kinetic-data were obtained by incubating various concentrations of peptide with a constant enzyme concentration to achieve between 5 and 20% cleavage of the peptide in each reaction. For assays with u-PA, enzyme concentration was either 815 or 635 nM. For assays with t-PA enzyme concentration was 700 nM. […] The buffer used in these assays has been described (Madison, E. L., et al., 1995). Reactions were stopped by addition of triflouroacetic acid to 0.33% or by freezing on dry ice. Cleavage of the 13 and 14 residue peptides was monitored by reverse phase HPLC as described (Madison, E. L., et al., 1995). The 4-6 residue peptides were acylated at their amino termini and amidated at their carboxyl termini. Cleavage of the 4-6 residue peptides was monitored by hydrophilic interaction HPLC chromatography (HILIC) (Alpert, A. J. (1990) J. Chromatog. 499, 177-196.) using a polyhydroxyaspartamine column from PolyLC (Columbia, Md.). Buffer A was 50 mM triethylamine phosphate in 10% acetonitrile and buffer B was 10 mM triethylamine phosphate in 80% acetonitrile. Peptides were eluted by a gradient which was varied from 100% Buffer B to 100% Buffer A during a 13 minute interval. The percent of cleaved peptide was calculated by dividing the area under the product peaks by the total area under substrate and product peaks. […] Errors were determined as described (Taylor, J. R., 1982) An introduction to error analysis. […]

B1: t-PA (Homo sapiens) (protein)
chain: SYQVICRDEKTQMIYQQHQSWLRPVLRSNRVEYCWCNSGRAQCHSVPVKSCSEPRCFNGGTCQQALYFSDFVCQCPEGFAGKCCEIDTRATCYEDQGISYRGTWSTAESGAECTNWNSSALAQKPYSGRRPDAIRLGLGNHNYCRNPDRDSKPWCYVFKAGKYSSEFCSTPACSEGNSDCYFGNGSAYRGTHSLTESGASCLPWNSMILIGKVYTAQNPSAQALGLGKHNYCRNPDGDAKPWCHVLKNRRLTWEYCDVPSCSTCGLRQYSQPQFRIKGGLFADIASHPWQAAIFAKHRRSPGERFLCGGILISSCWILSAAHCFQERFPPHHLTVILGRTYRVVPGEEEQKFEVEKYIVHKEFDDDTYDNDIALLQLKSDSSRCAQESSVVRTVCLPPADLQLPDWTECELSGYGKHEALSPFYSERLKEAHVRLYPSSRCTSQHLLNRTVTDNMLCAGDTRSGGPQANLHDACQGDSGGPLVCLNDGRMTLVGIISWGLGCGQKDVPGVYTKVTNYLDWIRDNMRP
For orientation: Km means the substrate concentration at which the rate is half of its maximum. For orientation: kcat means the number of substrate molecules converted per active site and unit of time at saturation. A word on the kcat/Km: it is the turnover number divided by the Michaelis constant. As to B1, the Km is 15 mM, the kcat turned out to be 0.0043 s⁻¹ and the kcat/Km was 0.29 M⁻¹ s⁻¹.
